Results from the supplement of paper PMC9112550, “Optimization of the antimicrobial peptide Bac7 by deep mutational scanning” (BMC Biology, 2022).

Test system: Escherichia coli TOP10
Assay: shrunken log2 fold change of peptide-encoding DNA abundance (4.5 h post-induction vs induction); higher = less antimicrobial activity (less host growth inhibition)
Details: time post-induction: 4.5 h; library: site-saturation at positions 5, 18, 19, 20
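Also: peptides expressed intracellularly from a pBAD plasmid library in pooled LB shake-flask culture, induced with 0.3% L-arabinose, DNA abundance read by NGS, three biological replicates, DESeq2 with apeglm shrinkage.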

| Sequence | shrunken log2 fold change |
| --- | --- |
| RRIRLRPPRLPRPRPRPIEEPRP | 0.0311 |
| RRIRPRPPRLPRPRPRPHINPRP | -1.16 |
| RRIRNRPPRLPRPRPRPQFLPRP | 0.106 |
| RRIRIRPPRLPRPRPRPALIPRP | -0.0428 |
| RRIRRRPPRLPRPRPRPCIIPRP | -0.474 |
| RRIRPRPPRLPRPRPRPTYDPRP | -0.212 |
| RRIRLRPPRLPRPRPRPHLTPRP | -0.241 |
| RRIRGRPPRLPRPRPRPMMKPRP | 0.591 |
| RRIRHRPPRLPRPRPRPSMEPRP | -0.424 |
| RRIRKRPPRLPRPRPRPTFFPRP | 0.368 |
| RRIRTRPPRLPRPRPRPDLHPRP | -0.174 |
| RRIRSRPPRLPRPRPRPAISPRP | 0.153 |
| RRIRKRPPRLPRPRPRPHKDPRP | -0.113 |
| RRIRNRPPRLPRPRPRPTGVPRP | 0.147 |
| RRIRMRPPRLPRPRPRPWTVPRP | -0.248 |
| RRIRHRPPRLPRPRPRPFQPPRP | -0.135 |
| RRIRMRPPRLPRPRPRPDPDPRP | 0.634 |
| RRIRQRPPRLPRPRPRPSLQPRP | -0.154 |
| RRIRHRPPRLPRPRPRPELQPRP | 0.07 |
| RRIRFRPPRLPRPRPRPETGPRP | 0.0907 |
| RRIRFRPPRLPRPRPRPNVTPRP | -0.724 |
| RRIRRRPPRLPRPRPRPVCDPRP | 0.621 |
| RRIRRRPPRLPRPRPRPGRDPRP | 0.717 |
| RRIRKRPPRLPRPRPRPCFMPRP | -0.0787 |
| RRIRYRPPRLPRPRPRPHCTPRP | -0.372 |

| Sequence | shrunken log2 fold change |
| --- | --- |
| RRIRTRPPRLPRPRPRPQENPRP | -0.165 |
| RRIRNRPPRLPRPRPRPFLCPRP | -0.966 |
| RRIRYRPPRLPRPRPRPHGAPRP | -0.0794 |
| RRIRHRPPRLPRPRPRPHFVPRP | -0.136 |
| RRIRLRPPRLPRPRPRPRPTPRP | 0.484 |
| RRIRTRPPRLPRPRPRPQTAPRP | -0.0946 |
| RRIRTRPPRLPRPRPRPHNIPRP | -0.455 |
| RRIRSRPPRLPRPRPRPVMQPRP | 0.138 |
| RRIRPRPPRLPRPRPRPEQTPRP | 0.0268 |
| RRIRPRPPRLPRPRPRPIPYPRP | -0.384 |
| RRIRARPPRLPRPRPRPKAMPRP | 0.00028 |
| RRIRMRPPRLPRPRPRPEAPPRP | 3.4 |
| RRIRMRPPRLPRPRPRPSMPPRP | -0.201 |
| RRIRFRPPRLPRPRPRPFPQPRP | -0.173 |
| RRIRNRPPRLPRPRPRPSWMPRP | -0.487 |
| RRIRSRPPRLPRPRPRPVGDPRP | 0.0704 |
| RRIRPRPPRLPRPRPRPTVLPRP | -0.225 |
| RRIRPRPPRLPRPRPRPLRFPRP | 0.431 |
| RRIRRRPPRLPRPRPRPGREPRP | -0.0226 |
| RRIRWRPPRLPRPRPRPWINPRP | -0.506 |
| RRIRCRPPRLPRPRPRPIAEPRP | 0.247 |
| RRIRPRPPRLPRPRPRPIVDPRP | 0.0804 |
| RRIRDRPPRLPRPRPRPVAKPRP | 0.356 |
| RRIRMRPPRLPRPRPRPFFSPRP | 0.195 |
| RRIRLRPPRLPRPRPRPSPMPRP | -0.107 |

| Sequence | shrunken log2 fold change |
| --- | --- |
| RRIRWRPPRLPRPRPRPLNPPRP | -0.0128 |
| RRIRDRPPRLPRPRPRPAIDPRP | 0.336 |
| RRIRKRPPRLPRPRPRPNASPRP | 0.236 |
| RRIRERPPRLPRPRPRPRKTPRP | 0.318 |
| RRIRKRPPRLPRPRPRPCNLPRP | 0.0104 |
| RRIRVRPPRLPRPRPRPFHMPRP | -0.54 |
| RRIRPRPPRLPRPRPRPKYYPRP | -0.783 |
| RRIRIRPPRLPRPRPRPTFWPRP | 0.407 |
| RRIRCRPPRLPRPRPRPDWPPRP | 0.187 |
| RRIRMRPPRLPRPRPRPFQVPRP | 0.0921 |
| RRIRARPPRLPRPRPRPILWPRP | 0.254 |
| RRIRPRPPRLPRPRPRPVLGPRP | 0.122 |
| RRIRYRPPRLPRPRPRPQSDPRP | -0.251 |
| RRIRERPPRLPRPRPRPRQGPRP | 0.235 |
| RRIRGRPPRLPRPRPRPTVFPRP | 0.993 |
| RRIRKRPPRLPRPRPRPKFIPRP | -1.04 |
| RRIRHRPPRLPRPRPRPTDDPRP | 0.0853 |
| RRIRGRPPRLPRPRPRPRFNPRP | 0.0824 |
| RRIRSRPPRLPRPRPRPKAYPRP | -0.0451 |
| RRIRQRPPRLPRPRPRPSWSPRP | -0.185 |
| RRIRTRPPRLPRPRPRPHQDPRP | -0.245 |
| RRIRPRPPRLPRPRPRPGMRPRP | 0.852 |
| RRIRLRPPRLPRPRPRPTGTPRP | 0.104 |
| RRIRTRPPRLPRPRPRPLNAPRP | -0.264 |
| RRIRYRPPRLPRPRPRPVTPPRP | -0.118 |

| Sequence | shrunken log2 fold change |
| --- | --- |
| RRIRYRPPRLPRPRPRPNNYPRP | -1.22 |
| RRIRMRPPRLPRPRPRPISTPRP | 0.166 |
| RRIRARPPRLPRPRPRPCMIPRP | -0.261 |
| RRIRQRPPRLPRPRPRPLFLPRP | -0.65 |
| RRIRIRPPRLPRPRPRPCQHPRP | -0.183 |
| RRIRYRPPRLPRPRPRPWPEPRP | -0.0592 |
| RRIRMRPPRLPRPRPRPDTRPRP | -0.0141 |
| RRIRCRPPRLPRPRPRPKSNPRP | -0.274 |
| RRIRRRPPRLPRPRPRPMLNPRP | -0.157 |
| RRIRERPPRLPRPRPRPGNVPRP | -0.197 |
| RRIRWRPPRLPRPRPRPNEEPRP | -0.0212 |
| RRIRFRPPRLPRPRPRPGKRPRP | -0.0962 |
| RRIRLRPPRLPRPRPRPHNHPRP | -0.77 |
| RRIRRRPPRLPRPRPRPNFWPRP | 0.198 |
| RRIRCRPPRLPRPRPRPHWHPRP | -0.42 |
| RRIRRRPPRLPRPRPRPNSFPRP | -0.29 |
| RRIRARPPRLPRPRPRPRSTPRP | 0.295 |
| RRIRVRPPRLPRPRPRPNINPRP | -0.608 |
| RRIRGRPPRLPRPRPRPSMYPRP | 0.173 |
| RRIRFRPPRLPRPRPRPSDDPRP | -0.106 |
| RRIRMRPPRLPRPRPRPDYMPRP | -0.00256 |
| RRIRIRPPRLPRPRPRPFMSPRP | -0.308 |
| RRIRDRPPRLPRPRPRPGEAPRP | 1.1 |
| RRIRLRPPRLPRPRPRPQDSPRP | -0.276 |
| RRIRERPPRLPRPRPRPHLAPRP | 0.101 |

| Sequence | shrunken log2 fold change |
| --- | --- |
| RRIRFRPPRLPRPRPRPSPPPRP | 0.218 |
| RRIRHRPPRLPRPRPRPMPPPRP | 0.00237 |
| RRIRHRPPRLPRPRPRPCNSPRP | -0.0938 |
| RRIRKRPPRLPRPRPRPDQNPRP | 0.678 |
| RRIRVRPPRLPRPRPRPTMIPRP | 0.0351 |
| RRIRIRPPRLPRPRPRPQYPPRP | -0.32 |
| RRIRMRPPRLPRPRPRPANWPRP | 2.4 |
| RRIRRRPPRLPRPRPRPKFGPRP | 0.172 |
| RRIRLRPPRLPRPRPRPDRVPRP | -0.0538 |
| RRIRTRPPRLPRPRPRPLWAPRP | 0.277 |
| RRIRTRPPRLPRPRPRPMIIPRP | -0.0854 |
| RRIRPRPPRLPRPRPRPYNAPRP | -0.608 |
| RRIRLRPPRLPRPRPRPEMAPRP | 0.113 |
| RRIRSRPPRLPRPRPRPPMGPRP | -0.0142 |
| RRIRYRPPRLPRPRPRPQKQPRP | 0.00415 |
| RRIRFRPPRLPRPRPRPGKNPRP | 0.0341 |
| RRIRTRPPRLPRPRPRPSYDPRP | -0.495 |
| RRIRQRPPRLPRPRPRPMQMPRP | 0.0303 |
| RRIRFRPPRLPRPRPRPVYIPRP | -1.22 |
| RRIRLRPPRLPRPRPRPIWMPRP | 0.0146 |
| RRIRGRPPRLPRPRPRPLNTPRP | 0.0396 |
| RRIRKRPPRLPRPRPRPWCTPRP | -0.0115 |
| RRIRTRPPRLPRPRPRPKYHPRP | -0.243 |
| RRIRWRPPRLPRPRPRPTAVPRP | 0.415 |
| RRIRQRPPRLPRPRPRPKKRPRP | 0.107 |

| Sequence | shrunken log2 fold change |
| --- | --- |
| RRIRSRPPRLPRPRPRPVANPRP | 0.152 |
| RRIRMRPPRLPRPRPRPTHLPRP | 0.396 |
| RRIRHRPPRLPRPRPRPWSIPRP | 0.0612 |
| RRIRDRPPRLPRPRPRPYKRPRP | 0.000522 |
| RRIRYRPPRLPRPRPRPHRKPRP | -0.501 |
| RRIRIRPPRLPRPRPRPHHCPRP | -0.00699 |
| RRIRCRPPRLPRPRPRPQLEPRP | -0.135 |
| RRIRFRPPRLPRPRPRPCYYPRP | -0.401 |
| RRIRSRPPRLPRPRPRPYEMPRP | -0.234 |
| RRIRPRPPRLPRPRPRPGHCPRP | 0.0859 |
| RRIRPRPPRLPRPRPRPPDSPRP | 0.326 |
| RRIRQRPPRLPRPRPRPMIHPRP | -0.471 |
| RRIRNRPPRLPRPRPRPMSAPRP | 0.0853 |
| RRIRDRPPRLPRPRPRPTFVPRP | 0.177 |
| RRIRNRPPRLPRPRPRPGQDPRP | -0.0269 |
| RRIRLRPPRLPRPRPRPVWTPRP | 0.00633 |
| RRIRTRPPRLPRPRPRPQMVPRP | -0.37 |
| RRIRYRPPRLPRPRPRPMDEPRP | -0.115 |
| RRIRIRPPRLPRPRPRPMWCPRP | -0.168 |
| RRIRMRPPRLPRPRPRPMAMPRP | 0.0319 |
| RRIRYRPPRLPRPRPRPPVMPRP | -0.355 |
| RRIRLRPPRLPRPRPRPDYNPRP | -0.657 |
| RRIRPRPPRLPRPRPRPVVFPRP | 0.0396 |
| RRIRSRPPRLPRPRPRPYNYPRP | -0.494 |
| RRIRPRPPRLPRPRPRPMRSPRP | 0.478 |
